Data on one molecule can be found in patent US20250262210A1 (TRUSTEES OF COLUMBIA UNIVERSITY IN THE CITY OF NEW YORK, published 2025).

One assay has as its target T1, RPAP1 (human, UniProt Q9BWH6 1-1393, limits assumed).
T1 sequence (looked up): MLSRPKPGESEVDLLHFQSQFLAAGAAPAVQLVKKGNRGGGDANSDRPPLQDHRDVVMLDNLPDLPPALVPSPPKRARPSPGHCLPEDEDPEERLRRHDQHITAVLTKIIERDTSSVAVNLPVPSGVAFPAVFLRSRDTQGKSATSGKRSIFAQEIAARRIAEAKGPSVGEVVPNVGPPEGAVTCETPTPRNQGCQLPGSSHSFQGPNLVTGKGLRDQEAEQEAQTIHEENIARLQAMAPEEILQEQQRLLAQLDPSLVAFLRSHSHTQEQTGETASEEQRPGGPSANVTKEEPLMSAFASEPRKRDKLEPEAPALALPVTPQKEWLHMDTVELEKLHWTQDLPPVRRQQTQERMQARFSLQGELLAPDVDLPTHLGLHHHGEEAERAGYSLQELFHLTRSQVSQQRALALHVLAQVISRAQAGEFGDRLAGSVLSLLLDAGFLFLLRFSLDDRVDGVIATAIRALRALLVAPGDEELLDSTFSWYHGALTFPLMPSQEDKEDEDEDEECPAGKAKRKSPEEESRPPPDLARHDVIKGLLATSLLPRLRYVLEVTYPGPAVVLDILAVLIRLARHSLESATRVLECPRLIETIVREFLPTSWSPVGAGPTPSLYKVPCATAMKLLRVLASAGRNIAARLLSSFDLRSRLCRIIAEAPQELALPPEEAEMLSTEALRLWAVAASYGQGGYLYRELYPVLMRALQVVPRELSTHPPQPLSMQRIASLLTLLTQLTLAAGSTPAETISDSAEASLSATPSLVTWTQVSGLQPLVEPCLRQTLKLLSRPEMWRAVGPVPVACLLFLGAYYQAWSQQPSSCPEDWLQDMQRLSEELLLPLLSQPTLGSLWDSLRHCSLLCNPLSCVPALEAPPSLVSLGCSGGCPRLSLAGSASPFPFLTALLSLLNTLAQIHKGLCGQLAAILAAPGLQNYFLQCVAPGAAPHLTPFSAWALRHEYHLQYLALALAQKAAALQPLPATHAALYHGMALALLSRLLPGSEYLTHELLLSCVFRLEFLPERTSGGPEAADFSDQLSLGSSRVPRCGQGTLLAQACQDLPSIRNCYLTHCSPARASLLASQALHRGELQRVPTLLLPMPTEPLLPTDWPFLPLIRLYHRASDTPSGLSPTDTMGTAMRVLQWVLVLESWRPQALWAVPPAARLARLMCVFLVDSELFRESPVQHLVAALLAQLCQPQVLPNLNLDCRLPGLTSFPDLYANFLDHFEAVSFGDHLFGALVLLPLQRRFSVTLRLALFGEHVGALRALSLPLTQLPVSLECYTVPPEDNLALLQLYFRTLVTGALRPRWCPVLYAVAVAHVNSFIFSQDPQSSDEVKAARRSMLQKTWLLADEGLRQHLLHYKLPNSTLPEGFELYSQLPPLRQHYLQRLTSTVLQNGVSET
Description: IP/MS, LZTR1 wild type-FLAG, U87. The procedure, abridged:
(§1)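 Extracted peptides in 3% acetonitrile/0.1% formic acid ran on a 50 cm C18 column into an Orbitrap Fusion, with MaxQuant identification and spectral counting.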

The next assay addresses T2, SNX14 (human, UniProt Q9Y5W7 1-946, limits assumed).
T2 sequence (looked up): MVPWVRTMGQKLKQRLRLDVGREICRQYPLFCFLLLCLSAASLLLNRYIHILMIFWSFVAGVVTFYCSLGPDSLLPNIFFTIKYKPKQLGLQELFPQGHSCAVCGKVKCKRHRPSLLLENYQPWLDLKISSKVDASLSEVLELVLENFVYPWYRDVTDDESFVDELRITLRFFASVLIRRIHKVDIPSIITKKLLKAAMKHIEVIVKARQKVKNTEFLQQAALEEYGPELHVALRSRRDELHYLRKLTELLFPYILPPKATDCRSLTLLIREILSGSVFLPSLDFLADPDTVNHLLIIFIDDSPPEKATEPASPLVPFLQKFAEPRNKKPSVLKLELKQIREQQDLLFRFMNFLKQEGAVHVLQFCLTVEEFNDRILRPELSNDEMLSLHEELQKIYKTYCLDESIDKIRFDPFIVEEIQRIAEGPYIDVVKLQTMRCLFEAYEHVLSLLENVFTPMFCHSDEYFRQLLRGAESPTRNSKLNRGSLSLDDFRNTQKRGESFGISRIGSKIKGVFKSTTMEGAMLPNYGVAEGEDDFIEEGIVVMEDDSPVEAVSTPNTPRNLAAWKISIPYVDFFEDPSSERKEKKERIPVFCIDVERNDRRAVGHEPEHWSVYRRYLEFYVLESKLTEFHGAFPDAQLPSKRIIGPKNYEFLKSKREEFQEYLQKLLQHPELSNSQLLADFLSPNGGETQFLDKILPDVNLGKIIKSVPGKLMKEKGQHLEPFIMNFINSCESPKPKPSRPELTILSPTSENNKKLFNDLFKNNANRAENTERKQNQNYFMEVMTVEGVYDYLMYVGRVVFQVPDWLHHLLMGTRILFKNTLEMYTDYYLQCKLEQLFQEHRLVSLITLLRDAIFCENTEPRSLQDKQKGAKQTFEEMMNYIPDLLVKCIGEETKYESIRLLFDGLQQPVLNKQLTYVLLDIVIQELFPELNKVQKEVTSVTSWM
Description: IP/MS, LZTR1 wild type-FLAG, U87. The procedure, abridged:
as §1

B1: LZTR1-FLAG (other, human, UniProt Q8N653 1-840, looked up)
chain: MAGPGSTGGQIGAAALAGGARSKVAPSVDFDHSCSDSVEYLTLNFGPFETVHRWRRLPPCDEFVGARRSKHTVVAYKDAIYVFGGDNGKTMLNDLLRFDVKDCSWCRAFTTGTPPAPRYHHSAVVYGSSMFVFGGYTGDIYSNSNLKNKNDLFEYKFATGQWTEWKIEGRLPVARSAHGATVYSDKLWIFAGYDGNARLNDMWTIGLQDRELTCWEEVAQSGEIPPSCCNFPVAVCRDKMFVFSGQSGAKITNNLFQFEFKDKTWTRIPTEHLLRGSPPPPQRRYGHTMVAFDRHLYVFGGAADNTLPNELHCYDVDFQTWEVVQPSSDSEVGGAEVPERACASEEVPTLTYEERVGFKKSRDVFGLDFGTTSAKQPTQPASELPSGRLFHAAAVISDAMYIFGGTVDNNIRSGEMYRFQFSCYPKCTLHEDYGRLWESRQFCDVEFVLGEKEECVQGHVAIVTARSRWLRRKITQARERLAQKLEQEAAPVPREAPGVAAGGARPPLLHVAIREAEARPFEVLMQFLYTDKIKYPRKGHVEDVLLIMDVYKLALSFQLCRLEQLCRQYIEASVDLQNVLVVCESAARLQLSQLKEHCLNFVVKESHFNQVIMMKEFERLSSPLIVEIVRRKQQPPPRTPLDQPVDIGTSLIQDMKAYLEGAGAEFCDITLLLDGHPRPAHKAILAARSSYFEAMFRSFMPEDGQVNISIGEMVPSRQAFESMLRYIYYGEVNMPPEDSLYLFAAPYYYGFYNNRLQAYCKQNLEMNVTVQNVLQILEAADKTQALDMKRHCLHIIVHQFTKVSKLPTLRSLSQQLLLDIIDSLASHISDKQCAELGADI
notes: Expressed in HEK 293T, HeLa or U87 cells; used as cell lysate; also called LZTR1 wild type-FLAG; LZTR1 WT; not shown: FLAG tag at the C-terminus
On to B1, for which the binding result with RPAP1 and with SNX14 was “binds” in each case.
